Source: patent US11179342B2, “Peptide coacervates and methods of use thereof” (NANYANG TECHNOLOGICAL UNIVERSITY, priority 2018, dated 2021)
“Also recorded” adds a separate entry of the source.

B1: DgHBP-1: recombinant histidine-rich beak protein 1 of Humboldt squid (Dosidicus gigas) (protein)
chain: QLYGAPAVGGVVENAVNAAESGAAATHDAQGAYAEADTAGVLDVNHAEHHDGVHDASGYGFGGLAGHGGFAGHGLYGPGFAGHGLLGAGYAGLGLHGAGFAGHGLHGAGFAGHGLYGAGFAGHGLHGFAGHGLYGAGFAGHGLGLGGLHGALGHGALAHY
modifications: Dosidicus gigas
B2: V1-C: DgHBP-1 mutant lacking the first 66 amino acids, containing all C-terminal modular repeats (protein)
chain: MHHHHHHSSGVDLGTENLYFQSMMGHGGFAGHGLYGPGFAGHGLLGAGYAGLGLHGAGFAGHGLHGAGFAGHGLYGAGFAGHGLHGFAGHGLYGAGFAGHGLGLGGLHGALGHGALAHY
modifications: HBP-1 derived peptide V1-C
notes: DgHBP-1 mutant lacking the first 66 amino acids, containing all C-terminal modular repeats
B3: V2-C: DgHBP-1 variant lacking the first 31 amino acids of the repetitive region, truncated at G98 (protein)
chain: MHHHHHHSSGVDLGTENLYFQSMMGAGFAGHGLHGAGFAGHGLYGAGFAGHGLHGFAGHGLYGAGFAGHGLGLGGLHGALGHGALAHY
modifications: HBP-1 derived peptide V2-C
notes: DgHBP-1 variant lacking the first 31 amino acids of the repetitive region, truncated at G98
B4: V5-N: N-terminus fragment of DgHBP-1 Lys mutant after trypsin cleavage (protein)
chain: MQLYGAPAVGGVVENAVNAAESGAAATHDAQGAYAEADTAGVLDVNHAEHHDGVHDASGYGFGGLAGHGGFAGHGLYGPGFAGHGLLGAGYAGLGLHGAGFAGHGLHGAGFAK
modifications: HBP-1 derived peptide V5-N
notes: N-terminus fragment of DgHBP-1 Lys mutant after trypsin cleavage
B5: V6-N: N-terminus fragment of DgHBP-1 Lys mutant after trypsin cleavage (protein)
chain: MQLYGAPAVGGVVENAVNAAESGAAATHDAQGAYAEADTAGVLDVNHAEHHDGVHDASGYGFGGLAGHGGFAGHGLYGPGFAGHGLLGAGYAGLGLHGAGFAGHGLHGAGFAGHGLYK
modifications: HBP-1 derived peptide V6-N
notes: as for B4
B6: V7-N: N-terminus fragment of DgHBP-1 Lys mutant after trypsin cleavage (protein)
chain: MQLYGAPAVGGVVENAVNAAESGAAATHDAQGAYAEADTAGVLDVNHAEHHDGVHDASGYGFGGLAGHGGFAGHGLYGPGFAGHGLLGAGYAGLGLHGAGFAGHGLHGAGFAGHGLYGAGFAK
modifications: HBP-1 derived peptide V7-N
notes: as for B4
B7: V3-N: N-terminus fragment of DgHBP-1 Lys mutant after trypsin cleavage (protein)
chain: MQLYGAPAVGGVVENAVNAAESGAAATHDAQGAYAEADTAGVLDVNHAEHHDGVHDASGYGFGGLAGHGGFAGHGLYGPGFAGHGLLGAGYAGLGLHGAGFAK
modifications: HBP-1 derived peptide V3-N
notes: as for B4
B8: V4-N: N-terminus fragment of DgHBP-1 Lys mutant after trypsin cleavage (protein)
chain: MQLYGAPAVGGVVENAVNAAESGAAATHDAQGAYAEADTAGVLDVNHAEHHDGVHDASGYGFGGLAGHGGFAGHGLYGPGFAGHGLLGAGYAGLGLHK
modifications: HBP-1 derived peptide V4-N
notes: as for B4
B9: C-terminal (A82-R172): DgHBP-2 C-terminal trypsin fragment containing the whole repetitive region (protein)
chain: AAQGANAVHNDAAQSHSALAAANTFGHGHAPYAAYGHGVYGHGPYGHGPYGHGLYGHGLYGHGPYGHGLYGHGAFGHGLNAYAPLVGHGLR
modifications: C-terminal fargment of HBP-2
notes: DgHBP-2 C-terminal trypsin fragment containing the whole repetitive region

Assay: Liquid-liquid phase separation by optical microscopy
Type: physicochemical
Settings: for ability to undergo LLPS / phase separation: various pH and salt (NaCl) concentration; for morphology of the separated phase: optical micrographs after LLPS; for range of conditions allowing LLPS: compared among variants; for highest pH at which LLPS was observed: N-variants, high salt; for minimal peptide concentration for LLPS at the highest pH: V7-N at pH 8, V6-N at pH 7, high salt
Procedure: In Example 2 below, phase separation behavior of protein variants and peptides was studied using a Zeiss Axio Scope A1 microscope (Carl Zeiss Pte Ltd., Germany) in the reflection mode, with differential interference contrast (DIC) filters. Images were taken with an AxioCam MRc 5 camera under the control of AxioVision software.
Liquid-liquid phase separation properties of protein variants and peptides at different buffer conditions were assessed using the method described in (Tan et al, Nat. Chem. Biol. 11, 488-495). Briefly, protein/peptide stock solution (10 mg/mL in 10 mM acetic acid, pH 3.3) was added to a buffer solution in a volume ratio 1:5 (protein/peptide stock:buffer). The mixture was then pipetted onto a microscopy glass slide and imaged using the optical microscope.

Row | Molecule | ability to undergo LLPS / phase separation | morphology of the separated phase | also measured
1 | GA-25: synthetic peptide of HBP-1 repeats harboring only one GHGLY motif (GAGFAGHGLHGAGFAGHGLYGAGFA; HBP-1 derived peptide GA-25) | remained in solution in all tested buffer conditions | – | –
2 | GAGFA [pentapeptide] | no phase separation was observed | – | –
3 | GH-25: synthetic peptide of HBP-1 repeats harboring only one GHGLY motif (GHGLHGAGFAGHGLYGAGFAGHGLH; HBP-1 derived peptide GH-25) | remained in solution in all tested buffer conditions | – | –
4 | GHGLYGAGFAGAGFAGAGFAGHGLY (GHGLYGAGFAGAGFAGAGFAGHGLY) [GY-25-V1] | – | dense and compact hydrogel | –
5 | GHGLYGHGLHGHGLHGHGLHGHGLY (GHGLYGHGLHGHGLHGHGLHGHGLY) [GY-25-V2] | – | only formed micro-droplets | –
6 | GHGLY GHGLY GHGLY GHGLY (GHGLYGHGLYGHGLYGHGLY) [GY-20] | Phase separation was observed | only formed micro-droplets | –
7 | GHGLY [pentapeptide] | no phase separation was observed | – | –
8 | GY-15-V1: 3 copies of the GHGLY motif arranged in tandem (GHGLYGHGLYGHGLY) | no phase separation was observed | – | –
9 | GY-15-V2: GAGFA motif flanked by GHGLY (GHGLYGAGFAGHGLY; Artificial peptide GY-15-V2) | no phase separation was observed | – | –
10 | V3-C: C-terminus fragment of DgHBP-1 Lys mutant after trypsin cleavage, longest section of repetitive region (GHGLHGAGFAGHGLYGAGFAGHGLHGFAGHGLYGAGFAGHGLGLGGLHGALGHGALAHY; HBP-1 derived peptide V3-C) | – | – | range of conditions allowing LLPS: broadest pH range among all tested variants; lowest protein concentration of phase separation (pH 8): 30 µM
11 | B1 | – | – | pH range of LLPS (at minimal concentration): 6.5-7.5; minimal concentration for LLPS (pH range 6.5-7.5): 20 to 30 µM
12 | B2 | underwent phase separation and formed coacervates; also recorded: underwent LLPS in the same way as full-length protein | – | –
13 | B3 | formed coacervates | – | protein concentration required to form coacervates: ca. 30 μmol; ability to undergo LLPS / phase separation (listed as V-2C): underwent LLPS in the same way as full-length protein
14 | B4 | only at high salt concentrations | hydrogels | highest pH at which LLPS was observed: ≤ 6; range of conditions allowing LLPS: only under narrow conditions
15 | B5 | only at high salt concentrations | hydrogels | highest pH at which LLPS was observed: 7; minimal peptide concentration for LLPS at the highest pH: 400 μM; range of conditions allowing LLPS: over a wider range of conditions
16 | B6 | only at high salt concentrations | hydrogels | highest pH at which LLPS was observed: 8; minimal peptide concentration for LLPS at the highest pH: at least 500 μM; range of conditions allowing LLPS: over a wider range of conditions
17 | B7 | could not be induced | – | –
18 | B8 | could not be induced | – | –
19 | B9 | phase-separated into coacervates | – | –
